{"source": "patent US20210363526A1", "about": "“Use of Non-Coding Nucleic Acid for Crop Improvement and Protection Against Microbes” (University of Kentucky Research Foundation, priority 2020, published 2021)", "key": {"[1]": {"tested_on": "Pseudomonas syringae DC 3000", "assay": "SAR (systemic acquired resistance) assay: local treatment, distal leaves challenged with virulent pathogen", "assay_type": "in vivo, Arabidopsis", "conditions": "for SAR in tas3a mutant plants: localized application to tas3a plants, AzA 1000 μM; for SAR in tas3a mutant plants / SAR in ago1 plants / SAR in ago7 plants: SA 500 μM, Pip 1000 μM, G3P 100 μM, DC3000 48 h later; for SAR in ago1 plants: localized application to ago1 plants; for SAR in ago7 plants: localized application to ago7 plants", "experimental": "Pathogen infection and collection of phloem exudate—Inoculations with Pseudomonas syringae DC 3000 were conducted as described before. The bacterial cultures were grown overnight in King's B medium containing rifampicin and/or kanamycin. For analysis of SAR, the primary leaves were inoculated with MgCl2 or the avr bacteria (10^7 cfu ml^−1) and, 48 h later, the systemic leaves were inoculated with vir bacteria (10^5 cfu m1^−1). Unless noted otherwise, samples from the systemic leaves were harvested at 3 dpi. Petiole exudates were collected in diethyl pyrocarbonate (DEPC) treated water as described earlier. […] PEX RNA was extracted using the TRIzol reagent, quantified using nanodrop and cDNA synthesized from PEX RNA was evaluated for contamination with leaf RNA by assaying for amplification of Rubisco genes. Each sample was run in triplicates and UBC9 expression levels were used as internal control for normalization. Cycle threshold values were calculated by SDS 2.3 software.\nChemical and RNA treatments—SA, G3P, AzA, and Pip treatments were carried out by using 500 μM, 100 μM, 1000 μM, and 1000 μM solutions, respectively. TAS3a RNA was suspended at a concentration of 0.0075-75 ng/μ1 of DEPC water and ˜40 μl was infiltrated per leaf. AzA was prepared in methanol and diluted in water. SA, G3P and Pip were prepared and diluted in water. All dilutions were freshly prepared prior to performing biological experiments.\nStatistics and reproducibility—For pathogen assays, ˜16 plants/ genotype/treatment were analyzed in a single experiment. At least 3-4 technical replicates/genotype/treatment were plated. For metabolite quantification, ˜12 plants/genotype/treatment were analyzed in each experiment. Unless otherwise mentioned error bars indicate SD."}, "[2]": {"tested_on": "auxin responsive factor (ARF) 3", "assay": "Real-time quantitative RT-PCR of ARF3 expression after TAS3a transcript application", "assay_type": "in vivo, Arabidopsis", "conditions": "Col-0 plants, exogenous application, 24 h", "description": "FIGS. 9A-H show images and graphs illustrating that TAS3a RNA contains two overlapping open reading frames. (A) Nucleotide sequence of mature TAS3a RNA (SEQ ID NO: 1). Region shaded in purple and gray indicates overlapping open reading frames. Nucleotides shaded in yellow are miR390-AGO7 targeting sites on TAS3a transcript. Arrows indicate position of forward and reverse primers used for quantitative RT-PCR. Residues in red indicate alternate polyadenylation sites. (B) Real-time quantitative RT-PCR showing relative expression levels of ARF3 in Col-0 plants treated with buffer or Tas3a555 for 24 h. The error bars indicate SD (n=4). Results are representative of two independent experiments. Asterisks denote a significant difference (t test, P<0.0001). […] Fresh protoplasts (10^6/ml) were incubated with 2 μM ^32P-TAS3a555 for 1 h, analyzed microscopically before and after four washes and quantified for the amount of radiolabel. […]\nRNA extraction, quantitative real-time PCR, and in vitro transcription—Small-scale extraction of RNA from two or three leaves (per sample) was performed with the TRIzol reagent (Invitrogen, CA), following the manufacturer's instructions. RNA quality and concentration were determined by gel electrophoresis and determination of A260. […] Quantitative RT-PCR was carried out as described before. […] Cycle threshold values were calculated by SDS 2.3 software."}, "isolated protoplasts": {"tested_on": "isolated protoplasts", "assay": "Uptake assay of 32P-TAS3a555 into isolated protoplasts", "assay_type": "cell-based, Arabidopsis", "conditions": "protoplasts incubated with 2 μM 32P-TAS3a555 for 1 h", "description": "FIGS. 9A-H show images and graphs illustrating that TAS3a RNA contains two overlapping open reading frames. (A) Nucleotide sequence of mature TAS3a RNA (SEQ ID NO: 1). Region shaded in purple and gray indicates overlapping open reading frames. Nucleotides shaded in yellow are miR390-AGO7 targeting sites on TAS3a transcript. Arrows indicate position of forward and reverse primers used for quantitative RT-PCR. Residues in red indicate alternate polyadenylation sites. (B) Real-time quantitative RT-PCR showing relative expression levels of ARF3 in Col-0 plants treated with buffer or Tas3a555 for 24 h. The error bars indicate SD (n=4). Results are representative of two independent experiments. Asterisks denote a significant difference (t test, P<0.0001). (C) Uptake assays showing percentage of ^32P-TAS3a555 transported into isolated protoplasts. Fresh protoplasts (10^6/ml) were incubated with 2 μM ^32P-TAS3a555 for 1 h, analyzed microscopically before and after four washes and quantified for the amount of radiolabel. The experiment was repeated three times with similar results. (D) RNA gel electrophoresis of in vitro synthesized TAS3a transcripts used in this study. (E) Typical morphological phenotypes of DC3000 inoculated distal leaves of Col-0 and tas3a plants. […]"}, "SA": {"tested_on": "SA", "assay": "SA quantification after localized TAS3a application", "assay_type": "in vivo, Arabidopsis", "conditions": "Col-0, localized application"}, "Pip": {"tested_on": "Pip", "assay": "Pip quantification after localized TAS3a application", "assay_type": "in vivo, Arabidopsis", "conditions": "Col-0, localized application"}, "ROS": {"tested_on": "ROS", "assay": "ROS (H2O2, DAB staining) after localized TAS3a application", "assay_type": "in vivo, Arabidopsis", "conditions": "Col-0, localized application", "experimental": "FIGS. 12A-D show graphs and images illustrating that exogenous application of TAS3a induces G3P but not SA, Pip, or ROS. (A) SA (left panel) and SAG (right panel) levels in Col-0 plants infiltrated with MgCl2, avrRpt2 or TAS3a transcripts. Leaf samples were collected 24 and 48 h post treatments. The error bars indicate SD (n=4). Asterisks denote a significant difference with respective mock-inoculated samples (t test, P<0.0001). (B) Pip levels in local tissues of Col-0 plants infiltrated with MgCl2 (mock), avrRpt2 or TAS3a transcripts. The leaves were sampled 48 h post treatments. Asterisks denote a significant difference with mock (t test, P<0.0001). The experiment was repeated two times with similar results. (C) H2O2 levels in local tissues of Col-0 plants after mock (MgCl2), pathogen (avrRpt2) or TAS3a treatments. The leaves were sampled 24 h post treatments and stained with DAB (3,3-diaminobenzidine). The experiment was repeated two times with similar results. (D) G3P levels in local tissues of water or 555 bp TAS3a transcript treated Col-0 plants. The leaves were sampled 24 h post treatments and the experiment was repeated two times with similar results. Asterisks denote a significant difference with respective mock-inoculated samples (t test, P<0.001)."}, "G3P": {"tested_on": "G3P", "assay": "G3P quantification after localized TAS3a application", "assay_type": "in vivo, Arabidopsis", "conditions": "Col-0, localized application, 24 h"}}, "note": "“Also recorded” adds a separate entry of the source."}
{"molecule": "O=C(O)CCCCCCCC(=O)O", "note": "[AzA, azelaic acid]", "values": [{"measurement": "SAR in tas3a mutant plants", "setting": "[1]", "result": "did not restore SAR"}]}
{"molecule": "O=P(O)(O)OCC(O)CO", "note": "(stereo not drawn) [G3P, glycerol-3-phosphate]", "values": [{"measurement": "SAR in ago1 plants", "setting": "[1]", "result": "unable to restore SAR"}, {"measurement": "SAR in ago7 plants", "setting": "[1]", "result": "unable to restore SAR"}, {"measurement": "SAR in tas3a mutant plants", "setting": "[1]", "result": "did not restore SAR"}]}
{"molecule": "O=C(O)c1ccccc1O", "note": "[SA, salicylic acid]", "values": [{"measurement": "SAR in ago1 plants", "setting": "[1]", "result": "unable to restore SAR"}, {"measurement": "SAR in ago7 plants", "setting": "[1]", "result": "unable to restore SAR"}, {"measurement": "SAR in tas3a mutant plants", "setting": "[1]", "result": "did not restore SAR"}]}
{"molecule": "O=C(O)C1CCCCN1", "note": "(stereo not drawn) [Pip, pipecolic acid]", "values": [{"measurement": "SAR in ago1 plants", "setting": "[1]", "result": "unable to restore SAR"}, {"measurement": "SAR in ago7 plants", "setting": "[1]", "result": "unable to restore SAR"}, {"measurement": "SAR in tas3a mutant plants", "setting": "[1]", "result": "did not restore SAR"}]}
{"molecule": "TAS3a transcript: exogenously applied in vitro transcribed TAS3a RNA, length not stated at the place (figure legends: 555 nt) (nucleic acid, listed as Arabidopsis thaliana) AUCCCACCGUUUCUUAAGACUCUCUCUCUUUCUGUUUUCUAUUUCUCUCUCUCUCAAAUGAAAGAGAGAGAAGAGCUCCCAUGGAUGAAAUUAGCGAGACCGAAGUUUCUCCAAGGCAUUAAGGAAAACAUAACCUCCGUGAUGCAUAGAGAUUAUUGGAUCCGCUGUGCUGAGACAUUGAGUUUUUCUUCGGCAUUCCAGUUUCAAUGAUAAAGCGGUGUUAUCCUAUCUGAGCUUUUAGUCGGAUUUUUUCUUUUCAAUUAUUGUGUUUUAUCUAGAUGAUGCAUUUCAUUAUUCUCUUUUUCUUGACCUUGUAAGGCCUUUUCUUGACCUUGUAAGACCCCAUCUCUUUCUAAACGUUUUAUUAUUUUCUCGUUUUACAGAUUCUAUUCUAUCUCUUCUCAAUAUAGAAUAGAUAUCUAUCUCUACCUCUAAUUCGUUCGAGUCAUUUUCUCCUACCUUGUCUAUCCCUCCUGAGCUAAUCUCCACAUAUAUCUUUUGUUUGUUAUUGAUGUAUGGUUGACAUAAAUUCAAUAAAGAAGUUGACGUUUUUCU", "values": [{"measurement": "SAR induction in wild-type plants", "setting": "[1]; localized application to wild-type Col-0, virulent DC3000 inoculated on distal leaves 48 h post-local treatment, transcripts 0.039 nmol/ml, Tasi-ARFs 1 μM (figure legends)", "result": "confer robust SAR; also recorded: able to induce SAR"}, {"measurement": "expression of TAS3a target gene ARF3", "setting": "[2]", "result": "suppressed"}, {"measurement": "uptake in isolated protoplasts", "setting": "isolated protoplasts", "result": "confirmed by uptake"}, {"measurement": "SA accumulation", "setting": "SA", "result": "did not induce"}, {"measurement": "SA accumulation", "setting": "SA; listed as TAS3a", "result": "not"}, {"measurement": "Pip accumulation", "setting": "Pip", "result": "did not induce"}, {"measurement": "Pip accumulation", "setting": "Pip; listed as TAS3a", "result": "not"}, {"measurement": "ROS accumulation", "setting": "ROS", "result": "did not induce"}, {"measurement": "ROS accumulation", "setting": "ROS; listed as TAS3a", "result": "not"}, {"measurement": "G3P levels", "setting": "G3P", "result": "did increase"}, {"measurement": "G3P levels", "setting": "G3P; listed as TAS3a", "result": "induces"}]}
